In US20140271602, “NUCLEOTIDE-SPECIFIC RECOGNITION SEQUENCES FOR DESIGNER TAL EFFECTORS” (THE BROAD INSTITUTE INC., published 2014) one finds activity data, which are given here for one molecule.

Data set [1] addresses T1, TALE1-NH (CACNA1C site 1 activator) (Xanthomonas (engineered), UniProt P14727 SEQ:1-983).
T1 chain: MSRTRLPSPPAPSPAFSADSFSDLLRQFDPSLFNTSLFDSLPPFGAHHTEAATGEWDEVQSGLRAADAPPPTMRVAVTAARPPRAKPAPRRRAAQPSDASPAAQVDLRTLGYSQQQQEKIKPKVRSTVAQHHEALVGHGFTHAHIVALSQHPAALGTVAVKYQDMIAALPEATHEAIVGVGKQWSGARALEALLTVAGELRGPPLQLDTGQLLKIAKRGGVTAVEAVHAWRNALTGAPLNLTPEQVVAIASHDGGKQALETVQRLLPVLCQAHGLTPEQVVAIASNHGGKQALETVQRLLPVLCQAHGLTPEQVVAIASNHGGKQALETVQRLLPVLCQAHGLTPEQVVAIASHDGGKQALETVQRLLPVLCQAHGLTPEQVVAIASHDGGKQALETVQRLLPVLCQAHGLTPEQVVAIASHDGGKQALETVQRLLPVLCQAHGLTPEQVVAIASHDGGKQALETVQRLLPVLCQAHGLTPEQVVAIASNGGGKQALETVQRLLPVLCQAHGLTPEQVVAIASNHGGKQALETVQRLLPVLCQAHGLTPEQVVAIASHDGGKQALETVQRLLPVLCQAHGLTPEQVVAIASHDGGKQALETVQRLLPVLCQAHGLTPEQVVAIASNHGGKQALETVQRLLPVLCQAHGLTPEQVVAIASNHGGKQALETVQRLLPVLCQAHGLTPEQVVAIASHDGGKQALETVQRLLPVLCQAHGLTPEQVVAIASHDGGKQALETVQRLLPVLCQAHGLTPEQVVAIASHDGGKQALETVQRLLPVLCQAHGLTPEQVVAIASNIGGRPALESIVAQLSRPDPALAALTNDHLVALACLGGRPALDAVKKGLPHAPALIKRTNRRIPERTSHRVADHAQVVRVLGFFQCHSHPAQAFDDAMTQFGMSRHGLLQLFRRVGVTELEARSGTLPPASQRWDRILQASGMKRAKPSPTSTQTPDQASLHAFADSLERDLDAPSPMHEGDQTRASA
Nature of the data set: cell_activity; HEK 293FT, endogenous CACNA1C mRNA; reporter 1.9x that of NK. The note with it: tags: VP64, 2A-GFP.

The target of another data set is T2, TALE1-NN repressor (Xanthomonas (engineered), UniProt P14727 SEQ:1-983).
T2 chain: T1 chain with H287N, H321N, H525N, H627N, H661N
Nature of the data set: cell_activity; endogenous CACNA1C mRNA. The note with it: tags: SID.

The target in another data set is T3, TALE1-NH repressor (Xanthomonas (engineered), UniProt P14727 SEQ:1-983).
T3 chain: T1 chain
Put plainly: cell_activity; endogenous CACNA1C mRNA. The note with it: tags: SID.

Residue numbers refer to the chain shown, from its start.

B1: CACNA1C site 1 (dsDNA)
DNA 1: TCGGCCCCTGCCGGCCCA
DNA 2: TGGGCCGGCAGGGGCCGA
Regarding B1, the values for the activity (in data set [1]; in the data set with TALE1-NN repressor; in the data set with TALE1-NH repressor) were approximately 5 fold activation, approximately 4 fold repression and approximately 4 fold repression, respectively.
